How the values were obtained:
blood coagulation system = assay: effects on blood coagulation system of New Zealand rabbits in vivo (APTT, PT, TT); design: species or system New Zealand rabbit; PT: unit not given beside the values; APTT / TT: unit not given here
Description: Medicaments were administrated via intravenous injection from marginal ear vein, and 1.8 ml blood was harvested from marginal ear veins at the time of before administration (0 min), and 10 min, 30 min, 60 min, 120 min and 240 min after administration, respectively (the time for injecting is 2 min). 3.2% sodium citrate (9:1) was added for anticoagulation and then mixed and centrifuged at 3000 rpm/min for 3 min. The plasma was send to Department of Clinical Laboratory, Southwest Hospital for determining blood coagulation indexes (APTT, TT and PT) with a full automatic coagulation analyzer and the difference before and after administration was obtained by comparison.

[1] = tested on: platelet aggregation induced by human thrombin; assay: antiplatelet aggregation assay (rabbits dosed i.v., thrombin-induced aggregation of PRP); assay type: in vivo, Japanese Giant Ear White Rabbits; settings: for aggregation ratio, difference: before vs 15 min after
Description: Platelet aggregation rate was determined by puncture of the central artery of the ear before administration, and then rabbits were randomly divided into 5 groups (4 in each group) based on the platelet aggregation rate and body weight: (1) negative control group (5.12 mg mannitol/kg), (2) high dose TNHH group (4.0 mg/kg), (3) middle dose TNHH group (2.0 mg/kg), (4) low dose TNHH group (1.0 mg/kg), and (5) positive control group (0.1 mg recombinant hirudin/kg). The rabbits in each group were administered at the dose respectively via intravenous injection from the marginal ear vein. Blood samples were collected at the time of 15 min after administration (timed by stopwatch) by puncture of the central artery of the ear to determine the platelet aggregation rate. The method of platelet aggregation rate determination was described as follows: the blood samples were collected by puncture of the central artery of the ear using silicified syringe. 3.8% anticoagulant sodium citrate solution (blood: anticoagulant=9:1) was used. The sample was centrifuged at 200×g for 8 min, and the supernatant obtained was platelet-rich plasma (PRP); then the remaining part was centrifuged again at 2200×g for 10 min, and the supernatant obtained was platelet-poor plasma (PPP). The platelet in PRP was counted as approximate 4.0×10^5/mm^3. According to Born's turbidimetry, a turbidimetric tube with 200 μl PRP and a small magnetic bar was placed in a platelet aggregation instrument and incubated at 37 for 1 min. After calibrating with PPP, the platelet was induced to aggregate by adding inductive human thrombin (0.76 IU/ml) under stirring. The effect of medicaments on the aggregation of platelet was analyzed using the aggregation curve and the maximum aggregation rate obtained from the instrument. The maximum aggregation rate was calculated according to the formula below: […]

[2] = tested on: human peripheral blood leukocyte; assay: inhibition of H2O2 release from human peripheral blood leukocyte; assay type: cell-based
Description: 10 ml venous blood was taken from healthy people, and heparin sodium was added for anticoagulation. 10 ml HAS buffer (comprising RPMI 1640+10 mM HEPES+1.2 mM CaCl2+1.0 mM MgCl2+1% HAS, pH 7.4) was added into the blood and mixed. Leukocyte separation solution (Sangon) was charged into a sterile centrifuge tube, and whole blood mixture of the same volume was added slowly, and then centrifuged at 2000 rpm for 15 min. Leukocyte solution was taken from the interface and appropriate 1640 culture medium was added, centrifuged for 10 min, and washed twice. The supernatant was discarded, and appropriate HAS Buffer was added for resuspending the precipitate so as to prepare leukocyte suspension. The cell density was counted and adjusted to 4×10^7/ml. The product was separated at 37° C. and used within an hour.
Coating the 24-well plate with Hank's solution comprising 50% fetal bovine serum and culturing at 37 for 60 min; washing the plate with 0.15 M NaCl twice; diluting the cells to 6.0×10^6/ml with the buffer solution for release assay, adding cells, and culturing at 37 for 5 min; adding FMLP to the final concentration of 250 nM; adding TNHH samples at different concentrations and culturing at 37 for 60 min; pipetting the cell suspension, centrifuging at 8000×g for 3 min, and collecting the supernatant. Adding the supernatant into multiple-wells of a 96-well ELISA plate, adding 1 N NaOH (25 μl) for stopping the reaction, and determining the OD at 610 nm wavelength. Calculating the IC50 value of TNHH for inhibiting H2O2 release, and using the standard H2O2 solution as a control.

[3] = TNHH 3.375 mg/kg i.v., 0 min (before administration)
[4] = TNHH 6.675 mg/kg i.v., 0 min (before administration)
[5] = dose in great excess of the effective dose

B1: TNHH: recombinant chimeric protein of neutrophil inhibitory factor and hirugen, Met-NIF-GGGGG-FPRPGSGG-Hirugen (SEQ ID NO: 3), expressed in E. coli (protein)
chain: MNEHNLRCPQNGTEMPGFNDSIRLQFLAMHNGYRSKLALGHISITEESESDDDDDFGFLPDFAPRASKMRYLEYDCEAEKSAYMSARNCSDSSSPPEGYDENKYIFENSNNISEAALKAMISWAKEAFNLNKTKEGEGVLYRSNHDISNFANLAWDAREKFGCAVVNCPLGEIDDETNHDGETYATTIHVVCHYPKINKTEGQPIYKVGTPCDDCSEYTKKADNTTSADPVCIPDDGVCFIGSKADYDSKEFYRFRELGGGGGFPRPGSGGNGDFEEIPEEYL
modifications: N-terminal Met
B1 gave an APTT (blood coagulation system; [3]) of 36.45 ± 6.60, a PT (blood coagulation system; [3]) of 6.78 ± 0.28 and a TT (blood coagulation system; [3]) of 15.57 ± 1.09. It also gave an APTT (blood coagulation system; TNHH 3.375 mg/kg i.v., 10 min) of 37.38 ± 6.35, a PT (blood coagulation system; TNHH 3.375 mg/kg i.v., 10 min) of 6.90 ± 0.21 and a TT (blood coagulation system; TNHH 3.375 mg/kg i.v., 10 min) of 23.23 ± 2.47. It also gave an APTT (blood coagulation system; TNHH 3.375 mg/kg i.v., 30 min) of 31.97 ± 2.11, a PT (blood coagulation system; TNHH 3.375 mg/kg i.v., 30 min) of 6.85 ± 0.23 and a TT (blood coagulation system; TNHH 3.375 mg/kg i.v., 30 min) of 16.13 ± 1.31. The APTT (blood coagulation system; TNHH 3.375 mg/kg i.v., 60 min) was 31.93 ± 2.39, the PT (blood coagulation system; TNHH 3.375 mg/kg i.v., 60 min) was 6.78 ± 0.22 and the TT (blood coagulation system; TNHH 3.375 mg/kg i.v., 60 min) was 14.75 ± 1.44. The APTT (blood coagulation system; TNHH 3.375 mg/kg i.v., 120 min) was 30.52 ± 6.86, the PT (blood coagulation system; TNHH 3.375 mg/kg i.v., 120 min) was 6.87 ± 0.32 and the TT (blood coagulation system; TNHH 3.375 mg/kg i.v., 120 min) was 14.02 ± 0.79. For the same molecule, the APTT (blood coagulation system; TNHH 3.375 mg/kg i.v., 240 min) was 35.65 ± 9.36, the PT (blood coagulation system; TNHH 3.375 mg/kg i.v., 240 min) was 7.02 ± 0.24 and the TT (blood coagulation system; TNHH 3.375 mg/kg i.v., 240 min) was 14.65 ± 1.14. The APTT (blood coagulation system; [4]) was 44.25 ± 5.39, the PT (blood coagulation system; [4]) was 6.88 ± 0.17 and the TT (blood coagulation system; [4]) was 15.97 ± 1.42. The APTT (blood coagulation system; TNHH 6.675 mg/kg i.v., 10 min) was 39.87 ± 4.98, the PT (blood coagulation system; TNHH 6.675 mg/kg i.v., 10 min) was 7.17 ± 0.36 and the TT (blood coagulation system; TNHH 6.675 mg/kg i.v., 10 min) was 33.57 ± 4.47. The APTT (blood coagulation system; TNHH 6.675 mg/kg i.v., 30 min) was 37.98 ± 4.77, the PT (blood coagulation system; TNHH 6.675 mg/kg i.v., 30 min) was 7.12 ± 0.47 and the TT (blood coagulation system; TNHH 6.675 mg/kg i.v., 30 min) was 21.63 ± 1.71. The APTT (blood coagulation system; TNHH 6.675 mg/kg i.v., 60 min) was 36.17 ± 6.76, the PT (blood coagulation system; TNHH 6.675 mg/kg i.v., 60 min) was 7.17 ± 0.40 and the TT (blood coagulation system; TNHH 6.675 mg/kg i.v., 60 min) was 15.55 ± 0.95. The APTT (blood coagulation system; TNHH 6.675 mg/kg i.v., 120 min) was 38.95 ± 8.85, the PT (blood coagulation system; TNHH 6.675 mg/kg i.v., 120 min) was 7.62 ± 0.64 and the TT (blood coagulation system; TNHH 6.675 mg/kg i.v., 120 min) was 15.00 ± 1.51. The APTT (blood coagulation system; TNHH 6.675 mg/kg i.v., 240 min) was 38.03 ± 9.11, the PT (blood coagulation system; TNHH 6.675 mg/kg i.v., 240 min) was 7.97 ± 0.99 and the TT (blood coagulation system; TNHH 6.675 mg/kg i.v., 240 min) was 13.33 ± 0.73. The “extension time of PT” value (blood coagulation system; TNHH 6.675 mg/kg i.v., vs 0 min) was “less than 3 seconds”, the “effects on the endogenous blood coagulation pathway” value (blood coagulation system; [5]) was “no effects” and the “effects on the exogenous blood coagulation pathway and fibrinolytic system” value (blood coagulation system; [5]) was “some effects”. The “aggregation ratio, Before administration” value ([1]; TNHH 1.0 mg/kg group) was 57.19 ± 4.42%, the “aggregation ratio, 15 min after administration” value (from here on “aggregation ratio, 15 min”) ([1]; TNHH 1.0 mg/kg i.v.) was 36.27 ± 12.13% and the “aggregation ratio, difference” value ([1]; TNHH 1.0 mg/kg i.v.) was 20.82 ± 7.98 %. For the same molecule, the “aggregation ratio, Before administration” value ([1]; TNHH 2.0 mg/kg group) was 59.62 ± 7.22%, the “aggregation ratio, 15 min” value ([1]; TNHH 2.0 mg/kg i.v.) was 19.33 ± 10.25% and the “aggregation ratio, difference” value ([1]; TNHH 2.0 mg/kg i.v.) was 30.30 ± 9.92 %. The “aggregation ratio, Before administration” value ([1]; TNHH 4.0 mg/kg group) was 59.23 ± 6.30%, the “aggregation ratio, 15 min” value ([1]; TNHH 4.0 mg/kg i.v.) was 9.22 ± 4.51% and the “aggregation ratio, difference” value ([1]; TNHH 4.0 mg/kg i.v.) was 50.92 ± 4.33 %. For the same molecule, the “IC50 value for inhibiting H2O2 release” value ([2]; FMLP 250 nM, 60 min) was 8.5 µg/mL, the “Inhibition ratio (%)” value ([2]; TNHH 0.781 μg/ml) was −1.3% and the “Inhibition ratio (%)” value ([2]; TNHH 1.562 μg/ml) was 6.55%. The “Inhibition ratio (%)” value ([2]; TNHH 3.125 μg/ml) was 22.76%, the “Inhibition ratio (%)” value ([2]; TNHH 6.25 μg/ml) was 40.17% and the “Inhibition ratio (%)” value ([2]; TNHH 12.5 μg/ml) was 50.82%. For the same molecule, the “Inhibition ratio (%)” value ([2]; TNHH 25 μg/ml) was 61.45%, the “Inhibition ratio (%)” value ([2]; TNHH 50 μg/ml) was 79.91% and the “Inhibition ratio (%)” value ([2]; TNHH 100 μg/ml) was 81.99%. For the same molecule, the “inhibition ratio compared with the control group” value ([2]; concentration not given) was “about 70%”.
